For assay [1], the target named is T1, huNav1.7α + β1-β2-β3 (human Nav1.7α co-expressed with human Navβ1, Navβ2 and Navβ3 on cells) (human).
T1 construct: also called huNav1.7-beta1-beta2-beta3; CHO FlpIn huNav1.7α + β1-β2-β3
Kind of assay: binding FACS, CHO FlpIn cells. Summed up: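 Cells at 1×10^5 per well incubated 30 min at 4 °C with purified FLAG3-tagged ISVD in FACS buffer (PBS, 10% FBS, NaN₃); bound ISVD detected via murine anti-Flag by flow cytometry, dead cells excluded with 1 μg/mL propidium iodide.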

The next assay concerns the target T2, huNav1.7α + β1-β2-β3 (human, UniProt Q15858 1-1988; A5A6L6 19-218; O60939 30-215; Q2KI11 23-215).
T2 construct: also called huNav1.7-beta1-beta2-beta3; huNav1.7-β1-β2-β3
Kind of assay: binding FACS, CHO FlpIn. As to the method:
(§1) Binding of the ISVDs to cell-expressed Nav1.7α was detected via murine anti-Flag (Sigma, catalog #F1804). Briefly, cells were resuspended in FACS buffer (PBS, 10% FBS, NaN₃) and transferred to a 96-well V-bottom plate at 1×10^5 cells/well. Purified FLAG3-tagged ISVD was diluted in FACS buffer and added to the cells for 30 minutes at 4° C. […] Prior to the read-out, the samples were resuspended in 1 μg/mL propidium iodide (Sigma, catalog #P4170) to exclude dead cells. Between each step, the cells were centrifuged for 5 minutes at 200 grams and washed with 100 μL/well FACS buffer.

The target of another assay is T3, rhNav1.7α + β1-β2-β3 (rhesus monkey).
T3 construct: also called rhNav1.7-beta1-beta2-beta3; rhNav1.7-β1-β2-β3
Kind of assay: binding FACS, CHO FlpIn. As to the method:
as §1

The term EC50 denotes the concentration at which the effect is half-maximal.

B1: F010302321 (VHH)
VHH: EVQLVESGGGVVQPGGSLRLSCAASGPVFNINRMAWYRQAPGKQRELVAYVTPTGDISYADSVKGRFTISRDRSKRVYLQMNSLRPEDTALYYCRALLQPDRYSITRTYWGQGTLVTVSS
notes: also called F0103387G04(L11V, A12V, K33R, R39Q, S50Y, S56D, T60A, G73R, W78V, S79Y, T83R, V89L, N93R, S100R, N100cI)-FLAG3-HIS6
On to B1, for which, in assay [1], the Bmax is 91% and the EC50 came to 7.9 nM.

B2: F010302324 (VHH)
VHH: EVQLVESGGGVVQPGGSLRLSCAASGPVFNINRMAWYRQAPGKQRELVAYVTPTGDISYADSVKGRFTISRDRSKRVYLQMNSLRPEDTALYYCRALLQPRRYSITRTYWGQGTLVTVSS
notes: also called F0103387G04(L11V, A12V, K33R, R39Q, S50Y, S56D, T60A, G73R, W78V, S79Y, T83R, V89L, N93R, D99R, S100R, N100cI)
Consider B2, for which, in assay [1], the Bmax is 42% and the EC50 came out at 29 nM.

B3: F010302334 (VHH)
VHH: EVQLVESGGGVVQPGGSLRLSCAASSRQFIRDVFTGWYRRAPGKQRELVARIYNEGNTQYADSAKGRFTISRDNAKKTVYLQMNSLRPEDTALYYCLFSGTISTGREYRSGDYWGQGTLVTVSS
As for B3, in the assay with huNav1.7α + β1-β2-β3, the Bmax worked out at 100% and the EC50 was 4 nM. In the assay with rhNav1.7α + β1-β2-β3, the Bmax is 70% and the EC50 was determined as 11 nM.

B4: F010302342 (VHH)
VHH: EVQLVESGGGVVQPGGSLRLSCAASSRQFIRDVFTGWYRQAPGKQRELVARIYNEGNTQYADSAKGRFTISRDNAKKTVYLQMNSLRPEDTALYYCLFSGTISTGREYRSGDYWGQGTLVTVSS
Take B4: in the assay with huNav1.7α + β1-β2-β3, the Bmax was found to be 100% and the EC50 came out at 4 nM. For the same molecule, in the assay with rhNav1.7α + β1-β2-β3, the Bmax came to 61% and the EC50 came to 16 nM.

B5: F010302338 (VHH)
VHH: EVQLVESGGGVVQPGGSLRLSCAASHRAFIRDVFTGWYRRAPGKQRELVARIYESGNTQYADSAKGRFTISRDNAKKTVYLQMNSLRPEDTALYYCLFSGTISTGREYRSGDYWGQGTLVTVSS
Consider B5, for which the Bmax with huNav1.7α + β1-β2-β3 and in the assay with rhNav1.7α + β1-β2-β3 was 100% throughout. For the same molecule, the concentration for a half-maximal effect (EC50) with huNav1.7α + β1-β2-β3 worked out at 3.4 nM; with rhNav1.7α + β1-β2-β3, 7.9 nM.

B6: F010302340 (VHH)
VHH: EVQLVESGGGVVQPGGSLRLSCAASHRAFIRDLFTGWYRRAPGKQRELVARIYESGNTNYADSAKGRFTISRDNAKKTVYLQMNSLRPEDTALYYCLFSGTISTGREYRSGDYWGQGTLVTVSS
On to B6, for which, in the assay with huNav1.7α + β1-β2-β3, the Bmax is 100% and the EC50 was 4.6 nM. In the assay with rhNav1.7α + β1-β2-β3, the Bmax came out at 96% and the EC50 was 13 nM.

B7: F010302335 (VHH)
VHH: EVQLVESGGGVVQPGGSLRLSCAASSRQFIRDVFTGWYRRAPGKQRELVARIYESGNTQYADSAKGRFTISRDNAKKTVYLQMNSLRPEDTALYYCLFSGTISTGREYRSGDYWGQGTLVTVSS
In the case of B7, the values for the Bmax in the assay with huNav1.7α + β1-β2-β3 and in the assay with rhNav1.7α + β1-β2-β3 were 100% and 84%, respectively. Also, the EC50 with huNav1.7α + β1-β2-β3 worked out at 4.1 nM; in the assay with rhNav1.7α + β1-β2-β3 it was 13 nM.

B8: F010302343 (VHH)
VHH: EVQLVESGGGVVQPGGSLRLSCAASSRQFIRDVFTGWYRQAPGKQRELVARIYESGNTQYADSAKGRFTISRDNAKKTVYLQMNSLRPEDTALYYCLFSGTISTGREYRSGDYWGQGTLVTVSS
For B8, in the assay with huNav1.7α + β1-β2-β3, the Bmax is 100% and the EC50 came out at 6.4 nM. For the same molecule, in the assay with rhNav1.7α + β1-β2-β3, the Bmax amounted to 84% and the EC50 stood at 18 nM.

B9: F010302344 (VHH)
VHH: EVQLVESGGGVVQPGGSLRLSCAASHRQFIRDVFTGWYRQAPGKQRELVARIYNEGNTQYADSAKGRFTISRDNAKKTVYLQMNSLRPEDTALYYCLFSGTISTGREYRSGDYWGQGTLVTVSS
In the case of B9, in the assay with huNav1.7α + β1-β2-β3, the Bmax was found to be 100% and the EC50 was determined as 4.3 nM. In the assay with rhNav1.7α + β1-β2-β3, the Bmax came to 78% and the EC50 was 13 nM.

B10: F010302336 (VHH)
VHH: EVQLVESGGGVVQPGGSLRLSCAASHRQFIRDVFTGWYRRAPGKQRELVARIYNEGNTQYADSAKGRFTISRDNAKKTVYLQMNSLRPEDTALYYCLFSGTISTGREYRSGDYWGQGTLVTVSS
As for B10, in the assay with huNav1.7α + β1-β2-β3, the Bmax was 100% and the EC50 worked out at 3.6 nM. In the assay with rhNav1.7α + β1-β2-β3, the Bmax came to 79% and the EC50 stood at 9.7 nM.

For the origin of these results see patent publication US20240002497A1 (Merck Sharp & Dohme, published 2024).
